Laboratory results: publication PMC11910139

Biological target: ENG-HA (endoglin, HA-tagged, ectopically expressed) (UniProt P17813)
Test: flow cytometry on cells; cells (HEK293T with or without ENG overexpression, DPSCs with or without ENG knockdown or anti-ENG pretreatment, HUVECs) incubated with His-tagged DSP (0.5 μg/ml) or BSA at 37 °C for 1 h; detected with anti-His-tag mAb-Alexa Fluor 488 and PE anti-human ENG antibody

Sequence of UniProt P17813 (P17813 26-658): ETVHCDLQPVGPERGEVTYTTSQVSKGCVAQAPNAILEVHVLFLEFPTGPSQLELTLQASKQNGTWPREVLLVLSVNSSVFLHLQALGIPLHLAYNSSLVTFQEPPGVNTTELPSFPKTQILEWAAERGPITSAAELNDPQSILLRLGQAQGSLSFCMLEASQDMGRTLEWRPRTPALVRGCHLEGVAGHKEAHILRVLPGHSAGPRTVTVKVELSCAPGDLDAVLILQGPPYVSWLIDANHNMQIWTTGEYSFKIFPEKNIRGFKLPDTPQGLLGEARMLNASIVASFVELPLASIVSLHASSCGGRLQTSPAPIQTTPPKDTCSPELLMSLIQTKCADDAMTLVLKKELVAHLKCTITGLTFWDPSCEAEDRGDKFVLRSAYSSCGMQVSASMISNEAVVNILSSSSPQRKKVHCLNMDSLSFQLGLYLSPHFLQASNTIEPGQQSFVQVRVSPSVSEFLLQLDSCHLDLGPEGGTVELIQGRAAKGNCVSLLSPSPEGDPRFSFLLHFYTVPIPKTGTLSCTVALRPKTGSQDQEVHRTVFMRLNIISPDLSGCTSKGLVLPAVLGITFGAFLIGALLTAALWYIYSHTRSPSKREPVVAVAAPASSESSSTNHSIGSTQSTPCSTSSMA

For “recombinant DSP-His protein (domain or fragment)”, the fold increase of the DSP-His signal on HEK293T cells with ectopic ENG against cells without was 7.5 fold.
